Data reported in publication PMC11237755.

Experiments:
Details in all cases: LightShift Chemiluminescent EMSA kit (binding buffer, salt and pH not given), 20 min room temperature; 20 fmol probe, 6% 0.5x TBE gel (TtdV/TtdW); 50 fmol …
[1] = system: T1, His6-ArcA~P (Salmonella enterica serovar Typhimurium IR715 (ATCC14028 NalR)), ORF:c309dbee; assay: EMSA
T1 sequence: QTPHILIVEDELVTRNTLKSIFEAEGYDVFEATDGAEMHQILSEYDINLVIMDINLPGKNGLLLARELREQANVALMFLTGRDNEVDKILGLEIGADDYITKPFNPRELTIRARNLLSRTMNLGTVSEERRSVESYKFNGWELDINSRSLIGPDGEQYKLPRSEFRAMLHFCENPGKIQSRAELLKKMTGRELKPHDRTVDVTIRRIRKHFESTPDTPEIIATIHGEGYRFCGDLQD

[2] = target: T2, TtdV-His6 (Salmonella enterica serovar Typhimurium IR715 (ATCC14028 NalR)) (UniProt Q8ZLP8); assay: EMSA
T2 sequence: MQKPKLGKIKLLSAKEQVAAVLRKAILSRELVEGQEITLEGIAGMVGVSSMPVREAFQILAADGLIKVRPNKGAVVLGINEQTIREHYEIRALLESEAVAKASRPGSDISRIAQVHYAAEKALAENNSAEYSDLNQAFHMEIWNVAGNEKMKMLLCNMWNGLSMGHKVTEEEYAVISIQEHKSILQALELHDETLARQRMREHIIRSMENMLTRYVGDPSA

[3] = system: T3, His6-ArcA (unphosphorylated) (Salmonella enterica serovar Typhimurium IR715 (ATCC14028 NalR)), ORF:c309dbee; assay: EMSA
T3 sequence: T1 sequence

[4] = system: T1, His6-ArcA~P (Salmonella enterica serovar Typhimurium IR715 (ATCC14028 NalR)), ORF:c309dbee; assay: competition
[5] = target: T4, TtdW-His6 (Salmonella enterica serovar Typhimurium IR715 (ATCC14028 NalR)) (UniProt Q8ZLP7); assay: competition
T4 sequence: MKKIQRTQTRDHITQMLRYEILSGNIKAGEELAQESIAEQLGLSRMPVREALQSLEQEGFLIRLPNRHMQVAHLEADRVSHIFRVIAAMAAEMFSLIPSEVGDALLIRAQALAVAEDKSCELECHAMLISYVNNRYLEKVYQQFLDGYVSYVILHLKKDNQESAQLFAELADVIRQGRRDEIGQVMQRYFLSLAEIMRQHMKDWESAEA

[6] = target: T4, TtdW-His6 (Salmonella enterica serovar Typhimurium IR715 (ATCC14028 NalR)); assay: EMSA

Sequence | binding [1] | binding [2] | binding [3] | binding [4] | binding [5] | binding [6]
ACCGAAGAAGAGTATGCCGTGATTTCCATTCAGGAACATAAAAGTATTCTGCAAGCTCTTGAACTTCATGATGAAACATTGGCACGCCAGCGCATGCGCGAACACATTATTCGCTCAATGGAGAATATGCTGACCCGCTATGTTGGTGACCCTTCTGCCTGATCTTTTCGCCTGCGTGAGCATCGCAGGCGCTTCAACCAATTCTTCAATTCTATTAATCACGTCCAGTAACGATCTAACCACGATCTTGATGTAGC (double strand) [Probe 3] | binds | no binding | binds | – | – | –
CGTATGCTGACCCGCTATGTTGGTGACCCTTCTGCCTGATCTTTTCGCCTGCGTGAGCATCGCAGGCGCTTCAACCAATTCTTCAATTCTATTAATCACGTCCAGTAACGATCTAACCACGATCTTGATGTAGATCCCACTCCTGCATCTTTCCTGAGAAACGATTTGACTTAGTTTTTGTATGGGAATAATTTCTCCCTGTCAACATTGGATACAATATCATATATCATTGATTGGATAATTATAAATATGGAACCCATTACCCTTACCTTATGTTTATTGGTGTTCGCCC (double strand) [Probe 4 unlabeled competitor] | – | – | – | binds | binds | –
GCCTTCTTCGGTGACCTTATGGCCCATCGACAGGCCGTTCCACATATTACAGAGCAACATTTTCATTTTTTCGTTGCCAGCAACATTCCATATTTCCATATGAAATGCCTGATTCAGGTCGGAGTATTCCGCCGAGTTATTTTCCGCGAGAGCCTTTTCAGCGGCATAATGCACCTGGGCTATCCGCGAGATATCGGAGCCAGGACGAGAAGCTTTAGCCACCGCCTCACTTTCTAACAGCGCGCGAATTTCATAGTGTTCACGGATGG (double strand) [Probe 1] | binds | no binding | binds | – | – | –
CGTATGCTGACCCGCTATGTTGGTGACCCTTCTGCCTGATCTTTTCGCCTGCGTGAGCATCGCAGGCGCTTCAACCAATTCTTCAATTCTATTAATCACGTCCAGTAACGATCTAACCACGATCTTGATGTAGATCCCACTCCTGCATCTTTCCTGAGAAACGATTTGACTTAGTTTTTGTATGGGAATAATTTCTCCCTGTCAACATTGGATACAATATCATATATCATTGATTGGATAATTATAAATATGGAACCCATTACCCTTACCTTATGTTTATTGGTGTTCGCCC (double strand) [Probe 4] | binds | – | binds | – | – | binds
CCTAACTCGGCGGAATACTCCGACCTGAATCAGGCATTTCATATGGAAATATGGAATGTTGCTGGCAACGAAAAAATGAAAATGTTGCTCTGTAATATGTGGAACGGCCTGTCGATGGGCCATAAGGTCACCGAAGAAGAGTATGCCGTGATTTCCATTCAGGAACATAAAAGTATTCTGCAAGCTCTTGAACTTCATGATGAAACATTGGCACGCCAGCGCATGCGCGAACACATTATTCGCTCAATGGAGAATATGCTGACCCGCTATGTTG (double strand) [Probe 2] | binds | no binding | binds | – | – | –
